From patent publication US20170173151A1 (Genmab, published 2017) come the findings set out here.

For assay [1], the target named is T1, HisCD74v1 (recombinant extracellular domain of human CD74 variant 1, N-terminal hexameric His tag) (human, UniProt P04233 73-296).
T1 construct: also called recombinant CD74v1; CD74v1 extracellular domain
T1 sequence: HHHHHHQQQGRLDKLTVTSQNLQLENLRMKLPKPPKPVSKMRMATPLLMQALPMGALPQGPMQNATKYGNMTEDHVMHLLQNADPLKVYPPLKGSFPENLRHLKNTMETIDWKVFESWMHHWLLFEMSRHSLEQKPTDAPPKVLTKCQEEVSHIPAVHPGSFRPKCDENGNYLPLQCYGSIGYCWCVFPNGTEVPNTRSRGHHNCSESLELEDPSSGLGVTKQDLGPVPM
Kind of assay: ELISA, coated recombinant CD74v1 extracellular domain (CD74ECDHis); mean of four experiments. The protocol: ELISA plates (Greiner BioOne) were coated with 2 μg/mL, 100 μL per well, recombinant CD74ECDHis in PBS (B. Braun Melsungen AG) at 4° C., 0/N. ELISA plates were emptied and blocked with 200 μL/well PBS containing 0.05% Tween-20 (PBST) while shaking (300 rpm), at RT for 1 hour, washed three times with 300 μL PBST and emptied. Subsequently, 100 μL anti-CD74 ADCs or unconjugated CD74-specific HuMab antibodies were added in serial dilutions in PBST and incubated while shaking at RT for 2 hours. ELISA plates were washed with PBST and emptied. Bound anti-CD74 ADCs and unconjugated HuMab antibodies were detected by addition of HRP-conjugated mouse-anti human IgG1 (100 μL; 0.015 μg/mL; Sanquin; # M1328) in PBST and incubation while shaking, at RT for 2 hours. Plates were washed with PBST, emptied and incubated with 100 μL ABTS solution (50 ml ABTS buffer [Roche] and one ABTS tablet [50 mg; Roche]). After incubation in the dark while shaking, at RT for 30 min, the reaction was stopped by incubation with 100 μL per well oxalic acid (2% [w/v]; Riedel de Haen) in the dark while shaking, for 10 min. Plates were measured at OD 405 nm in an ELISA reader (Biotek Instruments, EL808 Absorbance Microplate Reader).
IgG1-b12, an antibody binding to a non-related antigen, was used as a negative control (both unconjugated as well as in ADC format). Binding curves were analyzed by non-linear regression (sigmoidal dose-response with variable slope) using GraphPad Prism 5 software (GraphPad Software, San Diego, Calif., USA).

The target of assay [2] is human CD74, naturally expressed on cells (Raji, Daudi, M4A4, NCI-H747 cells; human tonsil tissue) (human) (UniProt P04233). As to the kind of experiment: FACS on Daudi cells, 10 µg/mL; mean of three experiments.
Assay [3] addresses T2, HisCD74v2 (recombinant extracellular domain of human CD74 variant 2, N-terminal hexameric His tag) (human, UniProt P04233 73-296).
T2 construct: also called recombinant CD74v2; CD74v2 extracellular domain
T2 sequence: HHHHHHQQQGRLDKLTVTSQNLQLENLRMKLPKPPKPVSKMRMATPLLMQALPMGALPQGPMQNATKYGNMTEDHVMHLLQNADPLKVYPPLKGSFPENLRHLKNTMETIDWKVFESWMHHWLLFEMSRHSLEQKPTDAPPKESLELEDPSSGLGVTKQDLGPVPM
As to the kind of experiment: ELISA, coated recombinant CD74v2 extracellular domain. The protocol: (§1) ELISA plates (Greiner BioOne) were coated 0/N at 4° C. with 2 μg/mL, 100 μL per well, recombinant CD74v1 or CD74v2 in PBS (B. Braun Melsungen AG). Sequences and production of the isoforms were described supra. ELISA wells were washed three times with PBS containing 0.05% Tween-20 (PBST), emptied, and blocked with 1% (w/v) BSA fraction V (Roche) in PBS at RT for 1 h while shaking (300 rpm), and emptied. Subsequently, 100 μL anti-CD74 HuMab antibodies were added in serial dilutions in 0.2% (w/v) BSA fraction V in PBST (assay buffer) and incubated while shaking at RT for 90 min. ELISA plates were washed three times with PBST, emptied, and bound HuMab antibodies were detected using HRP-conjugated goat-anti human IgG (100 μL; 1:5,000; Peroxidase Affinipure Goat anti-human IgG, F(ab′)2 Fragment Specific [min X Bov,Hrs,Ms Sr Prot]; Jackson Immunoresearch) in assay buffer and incubated while shaking at RT for 90 min. Plates were washed three times with PBST, emptied, and incubated with 100 μL ABTS solution (50 ml ABTS buffer [Roche] and one ABTS tablet [50 mg; Roche]). After incubation in the dark at RT for 30 min, the reaction was stopped by addition of 100 μL per well oxalic acid (2% [w/v]). Plates were measured at OD 405 nm in an ELISA reader (Biotek Instruments, EL808 Absorbance Microplate Reader).
(§2) Isotype control Ab IgG1-b12 was used as a negative control. Binding curves were analyzed using non-linear regression (sigmoidal dose-response with variable slope) using GraphPad Prism 5 software (GraphPad Software, San Diego, Calif., USA).

The target in assay [4] is human CD74, naturally expressed on cells (Raji, Daudi, M4A4, NCI-H747 cells; human tonsil tissue) (human) (UniProt P04233). As to the kind of experiment: cell-based or functional assay.
The target of assay [5] is T1, HisCD74v1 (recombinant extracellular …). As to the kind of experiment: ELISA, coated recombinant CD74v1 extracellular domain. The protocol: as §1, §2
Assay [6] has as its target human CD74, naturally expressed on cells (Raji, Daudi, M4A4, NCI-H747 cells; human tonsil tissue) (human) (UniProt P04233). Kind of assay: FACS on Raji cells.
Assay [7] shares this target. Kind of assay: FACS on Daudi cells at 0° C., Alexa-488-labeled antibody displaced by excess unlabeled antibody.
Assay [8] shares this target. As to the kind of experiment: FACS on Daudi cells; mean of three experiments.

B1: HuMab-CD74-006 (antibody, human IgG1, V domains shown)
VH: QVQLVESGGGVVQPGRSLRLSCAASGFTFSSYAMHWVRQAPGKGLEWVAVISYDGSIKYYADSVKGRFTISRDNSKNTLYLQMNSLRVEDTAVFYCARGREITSQNIVILLDYWGQGTLVTVTS
VL: DIQMTQSPSSLSASVGDRVTITCRASQGISSWLAWYQQKPEKAPKSLIYAASSLQSGVPSRFSGSGSGTDFTLTISSLQPEDFATYYCQQYNSYPLTFGGGTKVEIK
notes: Human IgG1,kappa antibody produced transiently in HEK-293F cells; also called antibody 006
For the molecule B1, the EC50 in assay [1] was 0.02 µg/mL; in assay [3], 0.21 µg/mL; in assay [5], 0.321 µg/mL; in assay [6], 0.196 µg/mL; in assay [8], 0.04 µg/mL. The Maximal binding (MFI at 10 µg/mL) in assay [2] was 4600 MFI. The same molecule registered a % viability (minimal) of Raji cells, anti-kappa-ETA' assay in assay [4] of 1.5%. In assay [4], this molecule returned an EC50 of killing of Raji cells, anti-kappa-ETA' assay of 57 µg/mL. Besides, in assay [7], the koff was determined as 0.004 s⁻¹. This molecule also displayed a time until half of the bound labeled antibody was replaced in assay [7] of 3 min.

B2: HuMab-CD74-011 (antibody, human IgG1, V domains shown)
VH: QVQLVESGGGVVQPGRSLRLSCAASGFTFSSYGMHWVRQAPDKGLEWVAVIWYDGSNKYYADSVKGRFTISRDNSKNTLYLQMNSLRAEDTAVYYCARGGTLVRGAMYGTDVWGQGTTVTVSS
VL: DIQMTQSPSSLSASVGDRVTITCRASQGISSWLAWYQQKPEKAPKSLIYAASSLQSGVPSRFSGSGSGTDFTLTISSLQPEDFATYYCQQYNSYPLTFGGGTKVEIK
notes: Human IgG1,kappa antibody produced transiently in HEK-293F cells; also called antibody 011
Take B2: the EC50 in assay [1] turned out to be 0.02 µg/mL; in assay [3], 0.245 µg/mL; in assay [5], 0.344 µg/mL; in assay [6], 0.151 µg/mL; in assay [8], 0.05 µg/mL. In assay [2], this molecule gave a Maximal binding (MFI at 10 µg/mL) of 5780 MFI. In assay [7], this molecule registered an off-rate constant (koff) of 0.00117 s⁻¹. The molecule also gave a time until half of the bound labeled antibody was replaced in assay [7] of 10 min.
